Experiments:
Test in all cases: holdup assay
Parameters in all cases: key: below the threshold = too weak to quantify, mostly under pKd 3.1 to 4
DLG4_2, P78352 = target: DLG4_2, P78352
GRIP1_4, Q9Y3R0 = target: T1, GRIP1_4, Q9Y3R0
T1 sequence (Q9Y3R0 467-571, limits assumed, looked up): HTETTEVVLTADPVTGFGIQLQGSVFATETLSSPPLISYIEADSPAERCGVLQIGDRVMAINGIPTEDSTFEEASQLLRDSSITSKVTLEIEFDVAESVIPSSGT

FRMPD2_1, Q68DX3 = target: FRMPD2_1, Q68DX3
GRID2IP_2, A4D2P6 = target: GRID2IP_2, A4D2P6
GRIP2_7, Q9C0E4 = target: GRIP2_7, Q9C0E4
Chain of GRIP2_7, Q9C0E4 (Q9C0E4 934-1023): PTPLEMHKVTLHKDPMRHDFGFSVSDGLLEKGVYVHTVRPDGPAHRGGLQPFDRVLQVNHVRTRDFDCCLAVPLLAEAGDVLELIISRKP

PTPN13_1, Q12923 = target: T2, PTPN13_1, Q12923
T2 sequence (Q12923 1088-1188, limits assumed, looked up): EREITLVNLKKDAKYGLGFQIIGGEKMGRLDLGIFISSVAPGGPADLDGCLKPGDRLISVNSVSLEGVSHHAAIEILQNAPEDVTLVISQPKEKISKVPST

DLG1_2, Q12959 = target: DLG1_2, Q12959
Chain of DLG1_2, Q12959 (Q12959 314-412): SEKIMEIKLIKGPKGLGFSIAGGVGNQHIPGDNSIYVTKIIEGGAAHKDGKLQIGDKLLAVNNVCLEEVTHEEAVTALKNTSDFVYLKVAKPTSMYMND

MPP2, Q14168 = target: T3, MPP2, Q14168
T3 sequence (Q14168 180-250, limits assumed, looked up): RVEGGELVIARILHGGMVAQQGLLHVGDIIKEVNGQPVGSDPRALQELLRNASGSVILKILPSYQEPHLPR

DLG3_3, Q92796 = target: T4, DLG3_3, Q92796
T4 sequence (Q92796 374-475, limits assumed, looked up): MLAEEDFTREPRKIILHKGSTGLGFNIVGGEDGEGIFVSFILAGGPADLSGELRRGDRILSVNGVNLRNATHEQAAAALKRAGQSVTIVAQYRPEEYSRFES

FRMPD2_2, Q68DX3 = target: FRMPD2_2, Q68DX3
Chain of FRMPD2_2, Q68DX3 (Q68DX3 944-1038): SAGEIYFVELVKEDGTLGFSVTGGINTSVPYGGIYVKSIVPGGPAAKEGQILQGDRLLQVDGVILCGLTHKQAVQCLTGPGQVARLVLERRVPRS

GRIP1_7, Q9Y3R0 = target: T5, GRIP1_7, Q9Y3R0
T5 sequence (Q9Y3R0 999-1096, limits assumed, looked up): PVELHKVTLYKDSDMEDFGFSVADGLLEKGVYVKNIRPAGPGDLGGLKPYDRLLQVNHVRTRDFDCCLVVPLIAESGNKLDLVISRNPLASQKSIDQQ

MAGI2_6, Q86UL8 = target: MAGI2_6, Q86UL8
Chain of MAGI2_6, Q86UL8 (Q86UL8 1141-1229): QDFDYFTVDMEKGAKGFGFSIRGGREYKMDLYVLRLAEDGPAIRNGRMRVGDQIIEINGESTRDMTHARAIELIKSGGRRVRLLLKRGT

LIN7B, Q9HAP6 = target: T6, LIN7B, Q9HAP6
T6 sequence (Q9HAP6 88-185, limits assumed, looked up): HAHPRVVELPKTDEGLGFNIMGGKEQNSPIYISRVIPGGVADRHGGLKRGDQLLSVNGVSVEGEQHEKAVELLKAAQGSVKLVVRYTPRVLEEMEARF

PDZD2_2, O15018 = target: T7, PDZD2_2, O15018
T7 sequence (O15018 329-429, limits assumed, looked up): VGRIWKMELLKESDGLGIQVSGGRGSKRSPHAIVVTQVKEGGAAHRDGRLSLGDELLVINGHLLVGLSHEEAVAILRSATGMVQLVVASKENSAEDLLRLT

FRMPD4, Q14CM0 = target: FRMPD4, Q14CM0
Chain of FRMPD4, Q14CM0 (Q14CM0 67-160): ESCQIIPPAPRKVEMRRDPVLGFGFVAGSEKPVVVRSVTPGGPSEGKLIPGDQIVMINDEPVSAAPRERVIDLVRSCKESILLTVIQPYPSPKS

AHNAK1, Q09666 = target: AHNAK1, Q09666
Chain of AHNAK1, Q09666 (Q09666 4-100): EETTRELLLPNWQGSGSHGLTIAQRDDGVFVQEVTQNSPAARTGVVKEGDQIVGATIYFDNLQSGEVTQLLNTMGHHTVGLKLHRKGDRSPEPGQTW

SNTG2, Q9NY99 = target: T8, SNTG2, Q9NY99
T8 sequence (Q9NY99 68-166, limits assumed, looked up): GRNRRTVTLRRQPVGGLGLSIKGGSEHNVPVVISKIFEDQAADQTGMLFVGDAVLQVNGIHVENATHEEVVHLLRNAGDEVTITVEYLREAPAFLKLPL

APBA1_2, Q02410 = target: T9, APBA1_2, Q02410
T9 sequence (Q02410 742-832, limits assumed, looked up): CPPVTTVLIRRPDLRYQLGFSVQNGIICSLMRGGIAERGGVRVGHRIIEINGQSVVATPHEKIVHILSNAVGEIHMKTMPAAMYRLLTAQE

PARD3_3, Q8TEW0 = target: PARD3_3, Q8TEW0
Chain of PARD3_3, Q8TEW0 (Q8TEW0 582-685): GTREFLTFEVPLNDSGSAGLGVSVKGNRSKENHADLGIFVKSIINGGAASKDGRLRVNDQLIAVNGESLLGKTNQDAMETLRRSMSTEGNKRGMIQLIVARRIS

MPDZ_12, O75970 = target: T10, MPDZ_12, O75970
T10 sequence (O75970 1857-1958, limits assumed, looked up): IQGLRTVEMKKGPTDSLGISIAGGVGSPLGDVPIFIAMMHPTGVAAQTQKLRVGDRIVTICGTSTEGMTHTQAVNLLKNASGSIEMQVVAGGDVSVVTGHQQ

MAGI2_4, Q86UL8 = target: MAGI2_4, Q86UL8
Chain of MAGI2_4, Q86UL8 (Q86UL8 772-865): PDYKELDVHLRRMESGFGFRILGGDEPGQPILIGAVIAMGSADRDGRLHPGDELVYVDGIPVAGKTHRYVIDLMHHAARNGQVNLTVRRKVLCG

SCRIB_3, Q14160 = target: SCRIB_3, Q14160
Chain of SCRIB_3, Q14160 (Q14160 999-1103): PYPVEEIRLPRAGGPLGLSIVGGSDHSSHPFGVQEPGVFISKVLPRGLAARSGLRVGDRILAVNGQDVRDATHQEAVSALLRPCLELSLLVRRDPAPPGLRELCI

NHERF4_2, Q86UT5 = target: NHERF4_2, Q86UT5
Chain of NHERF4_2, Q86UT5 (Q86UT5 220-308): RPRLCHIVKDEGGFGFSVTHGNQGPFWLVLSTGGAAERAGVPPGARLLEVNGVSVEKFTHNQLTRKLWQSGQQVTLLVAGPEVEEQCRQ

NOS1, P29475 = target: NOS1, P29475
Chain of NOS1, P29475 (P29475 9-101): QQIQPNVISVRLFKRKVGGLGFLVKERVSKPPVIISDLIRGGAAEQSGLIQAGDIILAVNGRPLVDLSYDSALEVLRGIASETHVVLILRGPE

NHERF3_4, Q5T2W1 = target: T11, NHERF3_4, Q5T2W1
T11 sequence (Q5T2W1 373-468, limits assumed, looked up): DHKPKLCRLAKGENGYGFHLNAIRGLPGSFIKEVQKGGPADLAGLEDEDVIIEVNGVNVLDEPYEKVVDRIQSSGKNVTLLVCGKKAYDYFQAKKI

LNX1_3, Q8TBB1 = target: LNX1_3, Q8TBB1
Chain of LNX1_3, Q8TBB1 (Q8TBB1 500-596): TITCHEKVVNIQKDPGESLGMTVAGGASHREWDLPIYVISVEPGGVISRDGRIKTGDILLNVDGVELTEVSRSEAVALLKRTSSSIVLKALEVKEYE

LIMK2, P53671 = target: LIMK2, P53671
Chain of LIMK2, P53671 (P53671 143-248): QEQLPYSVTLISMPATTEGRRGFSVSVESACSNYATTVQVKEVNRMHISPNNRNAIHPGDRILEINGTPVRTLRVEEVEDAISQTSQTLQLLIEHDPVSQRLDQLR

[1] = plain residues with an end cap or a label only (N-terminal biotin on a linker: ahx)
[2] = plain residues with an end cap or a label only (N-terminal biotin on a linker: ttds)

Chain of DLG4_2, P78352 (P78352 155-259): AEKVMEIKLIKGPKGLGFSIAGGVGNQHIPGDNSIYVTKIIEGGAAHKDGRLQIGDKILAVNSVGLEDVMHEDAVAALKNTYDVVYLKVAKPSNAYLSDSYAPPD
Chain of FRMPD2_1, Q68DX3 (Q68DX3 770-861): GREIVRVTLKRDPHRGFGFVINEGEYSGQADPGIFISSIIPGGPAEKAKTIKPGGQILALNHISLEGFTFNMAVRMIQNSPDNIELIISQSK
Chain of GRID2IP_2, A4D2P6 (A4D2P6 272-370): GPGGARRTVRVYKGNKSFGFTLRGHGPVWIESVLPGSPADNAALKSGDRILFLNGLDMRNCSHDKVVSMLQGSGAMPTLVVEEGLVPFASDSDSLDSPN

SDSSGQEYSL [KCTD3, Q9Y597] was tested, and the pKd (DLG4_2, P78352; [1]) was “below the threshold”, the pKd (GRIP1_4, Q9Y3R0; [1]) was “below the threshold” and the pKd (FRMPD2_1, Q68DX3; [1]) was “below the threshold”. The pKd (GRID2IP_2, A4D2P6; [1]) was “below the threshold”, the pKd (GRIP2_7, Q9C0E4; [1]) was “below the threshold” and the pKd (PTPN13_1, Q12923; [1]) was “below the threshold”. For the same binder, the pKd (DLG1_2, Q12959; [1]) was “below the threshold”, the pKd (MPP2, Q14168; [1]) was “below the threshold” and the pKd (DLG3_3, Q92796; [1]) was “below the threshold”. The pKd (FRMPD2_2, Q68DX3; [1]) was “below the threshold”, the pKd (GRIP1_7, Q9Y3R0; [1]) was “below the threshold” and the pKd (MAGI2_6, Q86UL8; [1]) was “below the threshold”. The pKd (LIN7B, Q9HAP6; [1]) was “below the threshold”, the pKd (PDZD2_2, O15018; [1]) was “below the threshold” and the pKd (FRMPD4, Q14CM0; [1]) was 4.69. For the same binder, the pKd (AHNAK1, Q09666; [1]) was “below the threshold”, the pKd (SNTG2, Q9NY99; [1]) was “below the threshold” and the pKd (APBA1_2, Q02410; [1]) was 3.65. For the same binder, the pKd (PARD3_3, Q8TEW0; [1]) was 4.58, the pKd (MPDZ_12, O75970; [1]) was “below the threshold” and the pKd (MAGI2_4, Q86UL8; [1]) was “below the threshold”. For the same binder, the pKd (SCRIB_3, Q14160; [1]) was “below the threshold”, the pKd (NHERF4_2, Q86UT5; [1]) was “below the threshold” and the pKd (NOS1, P29475; [1]) was 3.61. The pKd (NHERF3_4, Q5T2W1; [1]) was “below the threshold”, the pKd (LNX1_3, Q8TBB1; [1]) was “below the threshold” and the pKd (LIMK2, P53671; [1]) was “below the threshold”.

In the case of SKPTRRETEV [HPV35-E6, P27228], the pKd (DLG4_2, P78352; [2]) is reported as 5.51, the pKd (GRIP1_4, Q9Y3R0; [2]) is reported as “below the threshold” and the pKd (FRMPD2_1, Q68DX3; [2]) is reported as 3.49. For the same binder, the pKd (GRID2IP_2, A4D2P6; [2]) was “below the threshold”, the pKd (GRIP2_7, Q9C0E4; [2]) was “below the threshold” and the pKd (PTPN13_1, Q12923; [2]) was “below the threshold”. For the same binder, the pKd (DLG1_2, Q12959; [2]) was 5.64, the pKd (MPP2, Q14168; [2]) was “below the threshold” and the pKd (DLG3_3, Q92796; [2]) was 5.18. The pKd (FRMPD2_2, Q68DX3; [2]) was “below the threshold”, the pKd (GRIP1_7, Q9Y3R0; [2]) was “below the threshold” and the pKd (MAGI2_6, Q86UL8; [2]) was 3.49. The pKd (LIN7B, Q9HAP6; [2]) was 3.49, the pKd (PDZD2_2, O15018; [2]) was 3.78 and the pKd (FRMPD4, Q14CM0; [2]) was “below the threshold”. The pKd (AHNAK1, Q09666; [2]) was “below the threshold”, the pKd (SNTG2, Q9NY99; [2]) was 3.95 and the pKd (APBA1_2, Q02410; [2]) was “below the threshold”. For the same binder, the pKd (PARD3_3, Q8TEW0; [2]) was “below the threshold”, the pKd (MPDZ_12, O75970; [2]) was “below the threshold” and the pKd (MAGI2_4, Q86UL8; [2]) was 4.34. For the same binder, the pKd (SCRIB_3, Q14160; [2]) was 4.89, the pKd (NHERF4_2, Q86UT5; [2]) was “below the threshold” and the pKd (NOS1, P29475; [2]) was 3.74. The pKd (NHERF3_4, Q5T2W1; [2]) was “below the threshold”, the pKd (LNX1_3, Q8TBB1; [2]) was “below the threshold” and the pKd (LIMK2, P53671; [2]) was “below the threshold”.

For QRQARSETLV [HPV59-E6, Q81964], the pKd (DLG4_2, P78352; [2]) was 5.45, the pKd (GRIP1_4, Q9Y3R0; [2]) was “below the threshold” and the pKd (FRMPD2_1, Q68DX3; [2]) was “below the threshold”. For the same binder, the pKd (GRID2IP_2, A4D2P6; [2]) was 3.64, the pKd (GRIP2_7, Q9C0E4; [2]) was “below the threshold” and the pKd (PTPN13_1, Q12923; [2]) was “below the threshold”. For the same binder, the pKd (DLG1_2, Q12959; [2]) was 5.56, the pKd (MPP2, Q14168; [2]) was “below the threshold” and the pKd (DLG3_3, Q92796; [2]) was 4.51. The pKd (FRMPD2_2, Q68DX3; [2]) was 3.95, the pKd (GRIP1_7, Q9Y3R0; [2]) was “below the threshold” and the pKd (MAGI2_6, Q86UL8; [2]) was 3.74. The pKd (LIN7B, Q9HAP6; [2]) was “below the threshold”, the pKd (PDZD2_2, O15018; [2]) was 4.37 and the pKd (FRMPD4, Q14CM0; [2]) was “below the threshold”. The pKd (AHNAK1, Q09666; [2]) was “below the threshold”, the pKd (SNTG2, Q9NY99; [2]) was 4.05 and the pKd (APBA1_2, Q02410; [2]) was “below the threshold”. The pKd (PARD3_3, Q8TEW0; [2]) was “below the threshold”, the pKd (MPDZ_12, O75970; [2]) was “below the threshold” and the pKd (MAGI2_4, Q86UL8; [2]) was 5.71. The pKd (SCRIB_3, Q14160; [2]) was 3.86, the pKd (NHERF4_2, Q86UT5; [2]) was “below the threshold” and the pKd (NOS1, P29475; [2]) was 4.26. The pKd (NHERF3_4, Q5T2W1; [2]) was “below the threshold”, the pKd (LNX1_3, Q8TBB1; [2]) was “below the threshold” and the pKd (LIMK2, P53671; [2]) was “below the threshold”.

ESLLLGPSNF [SHROOM4, Q9ULL8] was tested, and the pKd (DLG4_2, P78352; [1]) was “below the threshold”, the pKd (GRIP1_4, Q9Y3R0; [1]) was “below the threshold” and the pKd (FRMPD2_1, Q68DX3; [1]) was “below the threshold”. The pKd (GRID2IP_2, A4D2P6; [1]) was “below the threshold”, the pKd (GRIP2_7, Q9C0E4; [1]) was “below the threshold” and the pKd (PTPN13_1, Q12923; [1]) was “below the threshold”. The pKd (DLG1_2, Q12959; [1]) was “below the threshold”, the pKd (MPP2, Q14168; [1]) was “below the threshold” and the pKd (DLG3_3, Q92796; [1]) was “below the threshold”. The pKd (FRMPD2_2, Q68DX3; [1]) was “below the threshold”, the pKd (GRIP1_7, Q9Y3R0; [1]) was “below the threshold” and the pKd (MAGI2_6, Q86UL8; [1]) was “below the threshold”. For the same binder, the pKd (LIN7B, Q9HAP6; [1]) was “below the threshold”, the pKd (PDZD2_2, O15018; [1]) was “below the threshold” and the pKd (FRMPD4, Q14CM0; [1]) was “below the threshold”. The pKd (AHNAK1, Q09666; [1]) was “below the threshold”, the pKd (SNTG2, Q9NY99; [1]) was “below the threshold” and the pKd (APBA1_2, Q02410; [1]) was “below the threshold”. The pKd (PARD3_3, Q8TEW0; [1]) was “below the threshold”, the pKd (MPDZ_12, O75970; [1]) was “below the threshold” and the pKd (MAGI2_4, Q86UL8; [1]) was “below the threshold”. For the same binder, the pKd (SCRIB_3, Q14160; [1]) was “below the threshold”, the pKd (NHERF4_2, Q86UT5; [1]) was “below the threshold” and the pKd (NOS1, P29475; [1]) was “below the threshold”. The pKd (NHERF3_4, Q5T2W1; [1]) was “below the threshold”, the pKd (LNX1_3, Q8TBB1; [1]) was “below the threshold” and the pKd (LIMK2, P53671; [1]) was “below the threshold”.
